Measurements: PMC10952495, “Glycosylation increases active site rigidity leading to improved enzyme stability and turnover” (The Febs Journal, 2023)

B1: pHRP (plant horseradish peroxidase, glycosylated) (Armoracia rusticana) (protein)
chain: QLTPTFYDNSCPNVSNIVRDTIVNELRSDPRIAASILRLHFHDCFVNGCDASILLDNTTSFRTEKDAFGNANSARGFPVIDRMKAAVESACPRTVSCADLLTIAAQQSVTLAGGPSWRVPLGRRDSLQAFLDLANANLPAPFFTLPQLKDSFRNVGLNRSSDLVALSGGHTFGKNQCRFIMDRLYNFSNTGLPDPTLNTTYLQTLRGLCPLNGNLSALVDFDLRTPTIFDNKYYVNLEEQKGLIQSDQELFSSPNATDTIPLVRSFANSTQTFFNAFVEAMDRMGNITPLTGTQGQIRLNCRVVNSNS
notes: native from horseradish root, 8 N-linked glycans, clinical diagnostic grade (Ortho Clinical Diagnostics), with and without C-terminal serine, monomer
B2: rHRP (recombinant horseradish peroxidase, nonglycosylated) (Armoracia rusticana) (protein)
chain: B1 chain

Substrate: Nc1ccccc1N
Assay: purified protein
Format: biochemical, Armoracia rusticana
Details: 25.0 °C
[1] = holo enzyme 0.5 nM, 3% v/v H2O2, 50 mM Tris pH 8.0, 298 K
[2] = holo enzyme 10 nM, 3% v/v H2O2, 20 mM Bis-Tris pH 7.0, 298 K

Row | Protein | Km [1] [µM] | kcat [1] [s⁻¹] | kcat/Km [1] [M⁻¹ s⁻¹] | Km [2] [µM] | kcat [2] [s⁻¹] | kcat/Km [2] [M⁻¹ s⁻¹]
1 | B1 | 920 ± 100 | 917 ± 53 | 1e+06 | – | – | –
2 | B2 | – | – | – | 980 ± 130 | 86.2 ± 4.7 | 88200
